Holding throughout (assay): SPR; ProteON XPR36, GLC chip; BMP-2 immobilised by amine coupling (1000-2000 RU), CV2 VWC1 proteins as analytes in six concentrations; 25 °C, HBST500 (10 mM HEPES pH 7.4, 500 mM NaCl, 0.005% Tween20); global Langmuir 1:1 fit, KD = koff/kon, or from dose-dependency of equilibrium binding for weak or fast binders; apparent KD
The target of assay [1] is E. coli derived recombinant human BMP-2 (human) (UniProt P12643).
For assay [2] the target is unchanged. The source holds these as a separate data set.
For assay [3] the target is unchanged. The source holds these as a separate data set.

Like-named read-outs stand apart in the source and are kept apart here. Bounds are passed on as bounds.

E. coli derived recombinant human BMP-2 (human), sequence (P12643 283-396): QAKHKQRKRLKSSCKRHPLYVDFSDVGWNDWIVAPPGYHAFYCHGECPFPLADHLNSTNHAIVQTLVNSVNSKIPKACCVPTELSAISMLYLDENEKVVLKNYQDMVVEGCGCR

CV2 VWC1 G4A (domain or fragment): in assay [1], the Kd is 239 nM and the koff – broadly, the rate constant with which the complex falls apart – was greater than 0.05 s⁻¹. Besides, in assay [2], the koff stood at 0.06 s⁻¹.

In the case of CV2 VWC1 E10A (domain or fragment), in assay [1], the Kd came out at 13 nM; the koff came out at 0.0095 s⁻¹; the kon – broadly, the second-order rate constant of association – was found to be 750000 M⁻¹ s⁻¹.

Turning to “VWC1 domain (von Willebrand type C domain 1) of Danio rerio Crossveinless 2, wildtype (domain or fragment)”, the Kd in assay [3] worked out at 14 nM. In addition, in assay [1], the Kd is 13 nM, the koff worked out at 0.0087 s⁻¹ and the kon is 650000 M⁻¹ s⁻¹.

Take CV2 VWC1 E6P (domain or fragment): in assay [1], the Kd was 12 nM, the koff amounted to 0.0073 s⁻¹ and the kon worked out at 630000 M⁻¹ s⁻¹.

Take CV2 VWC1 InsA10 (domain or fragment): in assay [1], the Kd was 13 nM, the koff was 0.0012 s⁻¹ and the kon turned out to be 910000 M⁻¹ s⁻¹.
